The results in this text go back to article PMC8831599, “Defining molecular glues with a dual-nanobody cannabidiol sensor” (Nature Communications, 2022).

What all share (conditions): both partners purified
The target in one assay is T1, His-DDB1–CRBN complex (human, UniProt Q96SW2 41-442; Q16531 1-1140).
T1 construct: human cereblon (CRBN) lacking residues 1-40; human DDB1; Held on AlphaScreen acceptor beads by the His-tag; source: Hi5 insect cells, co-expressed, purified (Ni-NTA); not shown: His-Msb-tag, N-terminal, kept
The assay can be described thus: AlphaScreen or HTRF; competition without pomalidomide: 0.9 nM His-DDB1–CRBN on acceptor beads, 8.3 nM biotinylated IKZF1 ZF2-3 on donor beads, label-free IKZF1 ZF2-3 titrated. In general terms: In Alpha technology, singlet oxygen from a donor bead excites a nearby acceptor bead.

Assay [1] deals with T2, GST-TIR1-ASK1 complex (Arabidopsis thaliana, UniProt Q570C0 1-594; Q39255 1-160).
T2 construct: F-box protein TIR1, Arabidopsis thaliana; ASK1 (SKP1 homologue), Arabidopsis thaliana; also called GST-tagged TIR1
T2 sequence (looked up) 1: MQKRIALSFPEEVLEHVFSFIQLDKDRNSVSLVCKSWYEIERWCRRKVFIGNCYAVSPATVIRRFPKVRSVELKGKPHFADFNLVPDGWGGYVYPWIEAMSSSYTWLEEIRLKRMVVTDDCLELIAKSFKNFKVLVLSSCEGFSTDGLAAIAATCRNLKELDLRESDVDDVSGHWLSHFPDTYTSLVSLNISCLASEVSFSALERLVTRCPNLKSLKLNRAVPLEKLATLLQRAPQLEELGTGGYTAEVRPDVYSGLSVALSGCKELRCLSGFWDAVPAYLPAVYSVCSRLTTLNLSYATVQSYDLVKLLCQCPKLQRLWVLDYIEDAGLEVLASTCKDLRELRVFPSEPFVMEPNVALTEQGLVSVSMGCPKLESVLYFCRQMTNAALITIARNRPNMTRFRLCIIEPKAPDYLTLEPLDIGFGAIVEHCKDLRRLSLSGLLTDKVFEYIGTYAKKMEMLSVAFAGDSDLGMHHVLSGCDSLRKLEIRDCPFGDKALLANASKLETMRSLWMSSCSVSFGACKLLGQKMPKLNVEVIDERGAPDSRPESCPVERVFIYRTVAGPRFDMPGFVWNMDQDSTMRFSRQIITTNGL
T2 sequence (looked up) 2: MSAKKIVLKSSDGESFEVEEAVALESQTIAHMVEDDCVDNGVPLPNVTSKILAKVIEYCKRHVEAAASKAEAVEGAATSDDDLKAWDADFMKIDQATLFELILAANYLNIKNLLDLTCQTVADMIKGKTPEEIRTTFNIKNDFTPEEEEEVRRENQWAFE
The assay can be described thus: BLI; TIR1 and IAA7 degron without auxin; biotinylated IAA7 on streptavidin probe or GST-TIR1 on anti-GST probe (not told which); 30 °C; 25 mM HEPES pH 7.4, 100 mM NaCl, 1 mM TCEP, 0.1% Tween-20, 0.05 mg/mL BSA. (BLI is a label-free optical method that tracks binding on a fibre tip over time.)

Assay [2] has as its target T2, GST-TIR1-ASK1 complex. The assay can be described thus: AlphaScreen or HTRF; competition without auxin: 0.9 nM GST-TIR1 on acceptor beads, 8.3 nM biotinylated IAA7 degron peptide on donor beads, label-free IAA7 degron peptide titrated.
Assay [3] concerns the target T3, DDB1-CRBN complex (CRBN Δ1-40 with full-length DDB1), tag-free (human, UniProt Q96SW2 41-442; Q16531 1-1140).
T3 construct: human cereblon (CRBN) lacking residues 1-40; human DDB1; also called CRBN–DDB1 complex; CRBN in complex with full-length DDB1; source: Hi5 insect cells, co-expressed, purified (Ni-NTA, TEV, anion exchange, SEC); not shown: SUMO-tag, N-terminal, cleaved; His-Msb-tag, N-terminal, cleaved
The assay can be described thus: BLI; biotinylated IKZF1 ZF2-3 or CK1α on streptavidin probe, tag-free DDB1–CRBN as analyte, no IMiD; 30 °C; 25 mM HEPES pH 7.4, 100 mM NaCl, 1 mM TCEP, 0.1% Tween-20, 0.05 mg/mL BSA.

Ends that are not written are not given here.

B1: Label-free IKZF1 ZF2-3 (141-196) (domain or fragment, human, UniProt Q13422 141-196, looked up)
chain: GERPFQCNQCGASFTQKGNLLRHIKLHSGEKPFKCHLCNYACRRRDALTGHLRTHS
notes: human IKZF1 (Ikaros), zinc fingers 2-3, residues 141-196; also called Avi-IKZF1^ZF2-3; not shown: GST, N-terminal, cleaved
Consider B1, for which the concentration for half-maximal inhibition (IC50) (commonly the concentration that gives 50% inhibition) in the assay with His-DDB1–CRBN complex is 200 to 300 nM.

B2: IAA7 degron peptide, non-labeled (peptide)
chain: QVVGWPPVRNYRK
modifications: synthetic peptide, unlabelled; limits not given, taken from the IAA7 degron peptide of the TIR1-ASK1 crystal structures (13-mer, PDB 2P1Q)
Take B2: the affinity in the assay with GST-TIR1-ASK1 complex [1], expressed as Kd, was 18500 nM. Further, the IC50 with GST-TIR1-ASK1 complex [2] was in the range of 18000 to 20000 nM.

B3: Biotin-labeled Avi-CK1α (enzyme, human, UniProt P48729 1-337, looked up)
chain: MASSSGSKAEFIVGGKYKLVRKIGSGSFGDIYLAINITNGEEVAVKLESQKARHPQLLYESKLYKILQGGVGIPHIRWYGQEKDYNVLVMDLLGPSLEDLFNFCSRRFTMKTVLMLADQMISRIEYVHTKNFIHRDIKPDNFLMGIGRHCNKLFLIDFGLAKKYRDNRTRQHIPYREDKNLTGTARYASINAHLGIEQSRRDDMESLGYVLMYFNRTSLPWQGLKAATKKQKYEKISEKKMSTPVEVLCKGFPAEFAMYLNYCRGLRFEEAPDYMYLRQLFRILFRTLNHQYDYTFDWTMLKQKAAQQAASSSGQGQQAQTPTGKQTDKTKSNMKGF
modifications: biotin on the Avi-tag (BirA-catalyzed)
notes: human casein kinase 1 alpha (CK1α); also called CK1a; source: Hi5 insect cells, purified (Ni-NTA, TEV, cation exchange, SEC, BirA biotinylation, SEC); not shown: His-Set3, N-terminal, cleaved; Avi-tag, N-terminal, kept
With B3, the equilibrium dissociation constant (Kd) (usually the equilibrium constant for the complex coming apart) in assay [3] is 2300 nM.

B4: Biotin-labeled Avi-IKZF1 ZF2-3 (141-196) (domain or fragment, human, UniProt Q13422 141-196, looked up)
chain: {Avi‑tag(biotin)}-GERPFQCNQCGASFTQKGNLLRHIKLHSGEKPFKCHLCNYACRRRDALTGHLRTHS
modifications: cysteine pairing not given here
notes: human IKZF1 (Ikaros), zinc fingers 2-3, residues 141-196; also called biotinylated IKZF1^ZF2-3; not shown: GST, N-terminal, cleaved; Avi-tag, N-terminal, kept
With B4, the dissociation constant (Kd) in assay [3] came out at 223 nM.
